Data: patent US20150335719A1, “Intravitreal Injection of a Chimeric Phage Endolysin Ply187; Protection from Staphylococcus aureus Endophthalmitis” (priority 2014, published 2015)

What was measured:
S. aureus RN6390 (MSSA) = assay: MIC against S. aureus strains (Table 1); type: cell-based, Staphylococcus aureus; conditions: mean of three experiments ± SEM
Method: For in vivo studies, an antibiotic sensitive S. aureus (SA) strain RN6390 was used to induce endophthalmitis; whereas, the in vitro studies were performed using antibiotic-resistant strains (Table 1), including USA300, a community-associated methicillin resistant S. aureus (CA-MRSA), and three clinical isolates R2932 (CA-MRSA), R2952 and R3000 (both being hospital-associated MRSA, […]), […]) kindly provided by Dr. Michael J. Rybak (Department of Pharmaceutical Sciences, Wayne State University, Detroit, Mich.). All bacteria were routinely cultured in TSB broth (Tryptic Soy broth, Sigma, St Louis, Mo.) or on TSB agar plates.
(§1) To verify and quantify the lytic activity against live S. aureus, we have tested Ply187AN-KSH3b in the Turbidity Reduction Assay. The turbidity assay measures the drop in optical density (OD) resulting from lysis of the target bacteria with the phage endolysin-derived protein. Turbidity reduction assays by chimeric Ply187AN-KSH3b were performed in a 96 well plate as described previously by Becker et al. (2009a, 2009b, supra). Briefly, S. aureus strains/isolates RN6390, USA 300, and clinical isolates R2932, R2952 and R3000 were grown to logarithmic phase (OD600 0.4-0.6) at 37° C. in tryptic Soy broth (TSB). The culture was harvested by centrifugation and the pellet was resuspended in assay buffer (400 mM NaCl, 20 mM Tris HCl, 1% glycerol, pH 7.5). Bacterial cultures (100 μl/well) were mixed with 100 μl of (as per MIC) of chimeric Ply187AN-KSH3b protein diluted in the same assay buffer. The reduction in the turbidity was measured after every 5 min up to 1 h using a micro plate reader. EB diluted in the same assay buffer (without chimeric Ply187AN-KSH3b protein) was used as a control (EB C). Resistance development against chimeric Ply187AN-KSH3b was tested using repeated exposure in an MIC assay as described by Rodriguez-Rubio and co-workers (Rodriguez-Rubio et al., PLoS One 8:e64671.). In brief, bacterial cultures (10^5 CFU/well) were exposed overnight to a 2-fold serial dilution of chimeric Ply187AN-KSH3b, lysostaphin, and gentamicin, where the latter serve as controls. In every round, 100 μl culture from the wells with growth (½ MIC value) were inoculated into fresh TSB and grown up to logarithmic phase. These cultures were used for the next round of MIC exposure. Bacteria surviving after 10 rounds were grown for an additional 5 rounds in TSB without any selection pressure to allow phenotype-reversion, then MIC were performed to measure the sensitivity to the chimeric Ply187AN-KSH3b after non-selective growth.

S. aureus strain RN6390 = assay: Resistance development assay by repeated exposure in an MIC assay; type: cell-based, Staphylococcus aureus; conditions: RN6390, up to 10 rounds of exposure
Method: Error bars represent SEM for three independent experiments performed in triplicates. […] Cells surviving at half (½) of the MIC value were used as an inoculum for each subsequent round of exposure. The change in susceptibility is recorded and presented as fold change resistance from day 1 to 10 of exposure and also after 5 days of growth (without any selection pressure) following the 10th day (represented as 10+5). The data represent means±SEM of two independent experiments performed in triplicate.
as §1, with “In every round, 100 μl culture from the wells with growth (½ MIC value) were inoculated into fresh TSB and grown up to logarithmic phase. These cultures were used for the next round of MIC exposure. Bacteria surviving after 10 rounds were grown for an additional 5 rounds in TSB without any selection pressure to allow phenotype-reversion, then MIC were performed to measure the sensitivity to the chimeric Ply187AN-KSH3b after non-selective growth.” left out

[1] = test system: S. aureus (strain RN6390, USA 300, R 2932, R 2952, R 3000) biofilms; assay: Biofilm disruption (Live/Dead BacLight staining and CFU count); type: cell-based, Staphylococcus aureus; conditions: 24 h biofilms treated for 30 min
Method: FIGS. 2A-2E depicts the biofilm disruption activity of chimeric Ply187AN-KSH3b. In FIG. 2A-2E, either chimeric Ply187AN-KSH3b or EB (EB C) or Gentamicin (for MDR/MRSA strains/isolates) was applied to cover slips containing S. aureus RN6390 (FIG. 2A), USA 300 (FIG. 2B), R 2932 (FIG. 2C), R 2952 (FIG. 2D) and R3000 (FIG. 2E) biofilms for 30 min. Bacterial killing was assessed via Live/Dead™ staining and subsequent fluorescence microscopy. FIG. 2F depicts the viability of biofilm associated bacteria enumerated by CFU count. Error bars represent the mean±SEM of two independent experiments performed in triplicate.
Biofilm disruption by the chimeric Ply187AN-KSH3b was observed using Live/Dead BacLight™ staining which takes advantage of SYTO™ 9, a green-fluorescent nucleic acid stain and propidium iodide that fluoresces red. SYTO™ 9 labels a bacterial population with an intact membrane and fluoresces green. In contrast, propidium iodide penetrates bacteria with damaged membranes and fluoresces red. Briefly, static biofilms of S. aureus (strain RN6390, USA 300, R 2932, R 2952, R 3000) were grown on glass cover slips in 6 well tissue culture plates in fresh TSB media seeded with S. aureus. After incubation at 37° C. for 24 h, the biofilms were treated for an additional 30 min with chimeric Ply187AN-KSH3b (as per MIC) diluted in EB or with EB/gentamicin alone. The biofilms were then stained with the Live/Dead BacLight™ bacterial viability kit (Invitrogen, Carlsbad, Calif.), per manufacturer's instruction. The cover slips were washed three times with PBS to remove excess stain and cell debris, mounted with mounting oil on a glass slide, and examined with an Eclipse 90i fluorescence microscope (Nikon, Melville, N.Y.).

[2] = test system: cultured microglia, Müller glia and RPE; assay: Cytotoxicity analysis in vitro; type: cell-based; conditions: data not shown
retinal cells = assay: Cytotoxicity analysis in vivo (retinal cell death); conditions: data not shown
[3] = test system: retinal function in S. aureus-infected eyes; conditions: treatment 6 h post infection, ERG 24 h post treatment
Method: The percentage amplitude of the a- and b-waves retained in S. aureus (SA)-infected, treated and untreated mice were compared to normal uninfected mice and presented as mean±SD (FIG. 7D).
Scotopic ERG was used to determine retinal function following S. aureus infection and chimeric Ply187AN-KSH3b treatment (6 h post infection). The mice (control, infected and infected+treated) were anesthetized 24 h post Ply187AN-KSH3b treatment, maintained at 37° C. using a heat pad, and the pupils were dilated using 1% tropicamide ophthalmic solution. ERGs were recorded following bilateral mydriasis and at least 4 h of dark adaptation. Silver embedded thread eye electrodes (Ocuscience™ LLC, Kansas City, Mo.) were used to record the ERG. Reference needle electrodes (stainless steel subdermal needle electrodes) were placed in anterior scalp and a ground needle electrode was placed in the tail. ERG responses were acquired using an ERG system (Ocuscience™ LLC, Kansas City, Mo.) and analyzed using ERGVIEW 4.380V. Ganzfeld light stimulus was used to present ten 10 ms flashes, with light intensities, increasing from 0.0001 to 100 cd-s/m^2. The ERG a-wave was measured as amplitude between the ERG baseline and the first negative peak, and the ERG b-wave was measured as amplitude between the first negative peak and the first positive peak.

[4] = intravitreal injection alone
staphylococci = conditions: Mao et al.; cited from earlier work

B1: Ply187AN-KSH3b: staphylococcal peptidoglycan hydrolase fusion protein: endopeptidase domain of prophage endolysin Ply187 plus SH3b cell wall-binding domain of phage K endolysin LysK (SEQ ID NO:1) (protein)
chain: MALPKTGKPTAKQVVDWAINLIGSGVDVDGYYGRQCWDLPNYIFNRYWNFKTPGNARDMAWYRYPEGFKVFRNTSDFVPKPGDIAVWTGGNYNWNTWGHTGIVVGPSTKSYFYSVDQNWNNSNSYVGSPAAKIKHSYFGVTHFVRPAYKAEPKPTPPLESTPATRPVTGSWKKNQYGTWYKPENATFVNGNQPIVTRIGSPFLNAPVGGNLPAGATIVYDEVCIQAGHIWIGYNAYNGNRVYCPVRTCQGVPPNQIPGVAWGVFKVEHHHHHH
modifications: Chemically Synthesized Fusion Protein
For B1, the MIC (S. aureus RN6390 (MSSA)) was 4.16 ± 1.04 mg/L, the “fold change in resistance” value (S. aureus strain RN6390) was “failed to develop any resistance” and the “biofilm disruption by Live/Dead staining” value [1] was “successfully disrupted biofilms”. For the same molecule, the “CFU counts of biofilm associated bacteria” value ([1]; all strains tested) was “almost zero”, the “retinal cell death in vitro” value [2] was “does not cause retinal cell death” and the “retinal cell death in vivo” value (retinal cells) was “does not cause retinal cell death”. The “ERG a- and b-wave amplitudes” value [3] was “no significant decline in a- or b-wave amplitudes”, the “a- and b-wave amplitudes retained” value ([3]; vs uninfected) was 90-95% and the “inflammatory response in the eye” value [4] was “does not evoke an inflammatory response”. The “antimicrobial effectiveness relative to Ply187, Ply187AN and LysK” value (staphylococci) was “more effective antimicrobial than the full-length Ply187 or the truncated Ply187 (Ply187AN)”.
